Source: patent US20250066452A1, “SYNTHETIC AMPHIPATHIC HELICAL PEPTIDES AND TREATMENT METHODS USING SYNTHETIC AMPHIPATHIC HELICAL PEPTIDES” (UNIVERSITY OF MARYLAND, BALTIMORE, priority 2022, published 2025)

Legend:
[1] = target: T1, CD36 (Homo sapiens, UniProt P16671); assay: IL-8 in conditioned medium (ELISA) of CD36-expressing HEK293 cells after 20 hours incubation with CD36 ligands; type: cell-based; conditions: CD36-expressing HEK293 cells; increasing ligand concentrations; 20 hours (FIG. 8)
T1 construct: expressed in transfected cells; host or cells: HEK293
Description: (§1) Following 20 hours incubation of wild-type (WT) and CD36-expressing (CD36+) HEK293 cells with increasing concentrations of CD36 ligands, the IL-8 levels were determined in conditioned medium by ELISA.
Following 20 hours incubation of CD36-expressing cells with the indicated amounts of the ligands, the IL-8 levels were determined in conditioned medium.
(§2) To study this, the applicant conducted cell culture experiments using wildtype (WT) and CD36+ expressing (CD36+) HEK293 cells, treated with increasing amounts of CD36 ligands. Specifically, the ligands tested were the PAMP lipopolysaccharide (LPS) and the DAMPs high mobility group box 1 protein (HMGB1), Histone H3B, and heat shock protein 60 (HSP60). […] Similarly to HSP60, it is presumed that HSP70 and HSP90 also cause inflammation mediated by the CD36 receptor, and which may be alleviated by the disclosed peptides.
Additionally, the applicant studied the effects of the above-referenced SAHP L37pA as an inhibitor of CD36-dependent, PAMP/DAMP-induced pro-inflammatory response. See FIGS. 9(a)-9(c) To study this, the applicant conducted cell culture experiments using CD36+ HEK293 cells, treated with increasing amounts of CD36 ligands. […] As controls, no treatment, L37pA alone, and L3D alone were administered.
As controls, no treatment, L37pA alone, and L3D alone were administered. […]

[2] = tested on: wild-type (WT) HEK293 cells; assay: IL-8 in conditioned medium (ELISA) of wild-type HEK293 cells after 20 hours incubation with CD36 ligands; type: cell-based; conditions: wildtype HEK293 cells; increasing ligand concentrations; 20 hours (FIG. 8)
Description: as §1, §2

T1 sequence (P16671 whole entry): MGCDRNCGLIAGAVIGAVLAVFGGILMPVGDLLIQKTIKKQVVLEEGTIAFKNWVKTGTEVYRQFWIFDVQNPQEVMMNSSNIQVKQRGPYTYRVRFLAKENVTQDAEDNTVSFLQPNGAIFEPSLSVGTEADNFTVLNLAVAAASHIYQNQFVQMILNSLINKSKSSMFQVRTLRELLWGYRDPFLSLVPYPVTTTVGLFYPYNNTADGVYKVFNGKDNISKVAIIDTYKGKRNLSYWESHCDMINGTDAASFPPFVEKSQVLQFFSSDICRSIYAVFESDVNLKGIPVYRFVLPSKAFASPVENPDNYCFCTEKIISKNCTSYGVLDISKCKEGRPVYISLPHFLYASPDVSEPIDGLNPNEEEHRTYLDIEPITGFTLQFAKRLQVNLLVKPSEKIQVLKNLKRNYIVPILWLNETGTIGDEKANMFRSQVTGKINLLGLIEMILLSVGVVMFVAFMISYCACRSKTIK

- IL-8 produced by cells treated with the ligand [1]: significant amount of IL-8
B1: heat shock protein 60 (protein, UniProt P10809 27-573, looked up)
60 kDa heat shock protein, …: AKDVKFGADARALMLQGVDLLADAVAVTMGPKGRTVIIEQSWGSPKVTKDGVTVAKSIDLKDKYKNIGAKLVQDVANNTNEEAGDGTTTATVLARSIAKEGFEKISKGANPVEIRRGVMLAVDAVIAELKKQSKPVTTPEEIAQVATISANGDKEIGNIISDAMKKVGRKGVITVKDGKTLNDELEIIEGMKFDRGYISPYFINTSKGQKCEFQDAYVLLSEKKISSIQSIVPALEIANAHRKPLVIIAEDVDGEALSTLVLNRLKVGLQVVAVKAPGFGDNRKNQLKDMAIATGGAVFGEEGLTLNLEDVQPHDLGKVGEVIVTKDDAMLLKGKGDKAQIEKRIQEIIEQLDVTTSEYEKEKLNERLAKLSDGVAVLKVGGTSDVEVNEKKDRVTDALNATRAAVEEGIVLGGGCALLRCIPALDSLTPANEDQKIGIEIIKRTLKIPAMTIAKNAGVEGSLIVEKIMQSSSEVGYDAMAGDFVNMVEKGIIDPTKVVRTALLDAAGVASLLTTAEVVVTEIPKEEKDPGMGAMGGMGGGMGGGMF
notes: DAMP, CD36 ligand
- IL-8 produced by cells treated with the ligand [2]: minimal amount of interleukin 8
